Results from the supplement of paper PMC6757056.
± gives the standard deviation of the averaged measurements.

B1: library; a variant is named by its letters at N, in order (parent)
chain: GCUGUCACCGGUGUAUUACCCUAGUGGUCGACCGGUCUGAUGAGUCUNNNNNNAGACGAAACAGC

Tests used:
[1] = variants of: B1; assay: FACS-Seq fitted mean relative fluorescence mCherry/BFP without ligand (log10 relative fluorescence); ligand: hypoxanthine (xanthine aptamer); higher = higher reporter protein expression; details: HEK293T, ligand present: no
Summary of the method: (§1)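 The ribozyme switch sat in an mCherry reporter, delivered by lentivirus into HEK293T libraries along with an EF1α-BFP marker. Enriched cells were incubated 48 h with or without ligand, sorted into 6 bins by mCherry/BFP, and bin genomic DNA was PCR-amplified, barcoded and MiSeq-sequenced. Fluorescence equals the fitted normal mean of the bin counts after normalization. Those log10(mCherry/BFP) means were scaled to five spiked-in control ribozymes.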

[2] = variants of: B1; assay: normalized RNA/DNA level with ligand (relative to sTRSVctl = 100) (log10 (% of sTRSVctl)); ligand: hypoxanthine (xanthine aptamer); higher = less ribozyme self-cleavage, higher mRNA level; details: ligand concentration (+) RNA-Seq: 5 mM, HEK293T, reporter: mCherry (pCS4076), ligand present: yes
Summary of the method: (§2)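 Library plasmids encoding reporter-linked ribozyme switches (mCherry, or eGFP for some folinic acid experiments) were transfected into HEK293T at 4 µg per 6-well well. Ligand, when used, was added 1 h before transfection. Total RNA was extracted with EDTA 72 h later, then reverse-transcribed, amplified, barcoded and sequenced. RNA level was RNA reads over DNA reads, divided by a spiked-in non-cleaving control (or the top 25 sequences), ×100, log10; only sequences with ≥100 DNA reads were kept.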

[3] = variants of: B1; assay: normalized RNA/DNA level without ligand (relative to sTRSVctl = 100) (log10 (% of sTRSVctl)); ligand: hypoxanthine (xanthine aptamer); higher = less ribozyme self-cleavage, higher mRNA level; details: HEK293T, reporter: mCherry (pCS4076), ligand present: no
Summary of the method: as §2

[4] = variants of: B1; assay: FACS-Seq fitted mean relative fluorescence mCherry/BFP with ligand (log10 relative fluorescence); ligand: hypoxanthine (xanthine aptamer); ligand concentration (+) FACS-Seq: 5 mM; higher = higher reporter protein expression; details: HEK293T, ligand present: yes
Summary of the method: as §1

Variant | FACS-Seq fitted mean (log10) [1] | normalized RNA/DNA level with ligand (log10) [2] | normalized RNA/DNA level without ligand (log10) [3] | FACS-Seq fitted mean (log10) [4]
CUAGAU | -0.176 ± 0.0088 | 1.96 ± 0.051 | 1.79 ± 0.056 | 0.0723 ± 0.049
UUCUCG | 0.24 ± 0.0079 | 2.01 ± 0.034 | 1.854 ± 0.0077 | 0.362 ± 0.0084
GUAUUG | -0.148 ± 0.011 | 1.882 ± 0.011 | 1.45 ± 0.1 | 0.209 ± 0.0066
UUAUGG | 0.281 ± 0.094 | 1.89 ± 0.032 | 1.666 ± 0.015 | 0.317 ± 0.05
UUAUGA | -0.0342 ± 0.015 | 1.91 ± 0.04 | 1.64 ± 0.039 | -0.0882 ± 0.046
GUAGUG | 0.125 ± 0.029 | 1.94 ± 0.037 | 1.428 ± 0.0021 | 0.532 ± 0.051
GUAGUA | 0.68 ± 0.083 | 1.899 ± 0.01 | 1.749 ± 0.014 | 0.725 ± 0.029
CUAUGG | 0.518 ± 0.013 | 1.888 ± 0.00026 | 1.6 ± 0.027 | 0.234 ± 0.17
GUCAUG | 0.242 ± 0.025 | 1.9 ± 0.027 | 1.53 ± 0.025 | 0.491 ± 0.014
CUAGUG | -0.00638 ± 0.00052 | 1.95 ± 0.1 | 1.85 ± 0.028 | 0.202 ± 0.017
CUAGUC | 0.639 ± 0.036 | 1.99 ± 0.074 | 1.91 ± 0.046 | 0.658 ± 0.03
CUAUUA | 0.569 ± 0.023 | 1.942 ± 0.019 | 1.85 ± 0.054 | 0.484 ± 0.053
CUAUUC | 0.8316 ± 0.0023 | 2 ± 0.02 | 1.84 ± 0.055 | 0.762 ± 0.023
CUAUUG | 0.179 ± 0.031 | 1.95 ± 0.048 | 1.843 ± 0.0087 | 0.763 ± 0.041
UUACUG | 0.491 ± 0.085 | 1.93 ± 0.039 | 1.67 ± 0.034 | 0.536 ± 0.13
GUAGAA | 0.2674 ± 0.0022 | 1.89 ± 0.03 | 1.723 ± 0.0046 | 0.342 ± 0.023
GUAGAG | 0.148 ± 0.015 | 1.83 ± 0.073 | 1.31 ± 0.16 | 0.627 ± 0.068
UUCUAA | 0.391 ± 0.23 | 1.961 ± 0.018 | 1.85 ± 0.077 | -0.13 ± 0.28
UUACAU | 0.352 ± 0.018 | 1.93 ± 0.051 | 1.87 ± 0.026 | 0.453 ± 0.11
AUCAAG | 0.0695 ± 0.06 | 1.85 ± 0.043 | 1.5 ± 0.06 | 0.339 ± 0.047
UUCCCG | 0.397 ± 0.063 | 1.919 ± 0.0045 | 1.83 ± 0.046 | 0.514 ± 0.064
AUACGG | -0.0504 ± 0.059 | 1.785 ± 0.012 | 1.27 ± 0.082 | 0.547 ± 0.084
AUACGC | 0.365 ± 0.04 | 1.91 ± 0.056 | 1.72 ± 0.042 | 0.5194 ± 0.0036
GUCGAC | 0.245 ± 0.035 | 1.92 ± 0.031 | 1.68 ± 0.033 | 0.428 ± 0.1

Variant | FACS-Seq fitted mean (log10) [1] | normalized RNA/DNA level with ligand (log10) [2] | normalized RNA/DNA level without ligand (log10) [3] | FACS-Seq fitted mean (log10) [4]
GUCGAA | 0.322 ± 0.039 | 1.92 ± 0.034 | 1.69 ± 0.021 | 0.22 ± 0.072
GUCGAG | 0.248 ± 0.065 | 1.81 ± 0.062 | 1.41 ± 0.072 | 0.65 ± 0.073
AUAUGG | -0.462 ± 0.062 | 1.802 ± 0.0067 | 1.374 ± 0.0022 | -0.111 ± 0.04
AUAUGA | 0.609 ± 0.0086 | 1.924 ± 0.0023 | 1.7 ± 0.02 | 0.758 ± 0.018
AUAUGU | 0.416 ± 0.0064 | 1.886 ± 0.0057 | 1.68 ± 0.054 | 0.511 ± 0.015
UUCUGG | 0.955 ± 0.026 | 1.931 ± 0.0039 | 1.8 ± 0.023 | 0.764 ± 0.068
GUCUCG | 0.392 ± 0.059 | 1.94 ± 0.094 | 1.7 ± 0.022 | 0.575 ± 0.11
GUCUCU | 0.359 ± 0.039 | 1.97 ± 0.039 | 1.98 ± 0.092 | 0.302 ± 0.052
AUCUGG | 0.338 ± 0.0078 | 1.84 ± 0.023 | 1.426 ± 0.0099 | 0.609 ± 0.05
AUCUGA | 0.724 ± 0.047 | 1.96 ± 0.049 | 1.83 ± 0.045 | 0.684 ± 0.016
AUCUUG | 0.269 ± 0.0029 | 1.846 ± 0.015 | 1.59 ± 0.039 | 0.48 ± 0.04
GUAUAC | 0.143 ± 0.058 | 1.94 ± 0.067 | 1.82 ± 0.067 | 0.251 ± 0.093
GUAUAG | -0.0857 ± 0.034 | 1.854 ± 0.0081 | 1.44 ± 0.065 | 0.479 ± 0.013
GUAUAU | -0.558 ± 0.056 | 1.84 ± 0.024 | 1.8 ± 0.041 | -0.474 ± 0.016
GUCAAA | 0.456 ± 0.0096 | 1.91 ± 0.047 | 1.733 ± 0.0061 | 0.532 ± 0.0073
GUCAAG | 0.65 ± 0.074 | 1.85 ± 0.077 | 1.46 ± 0.07 | 0.667 ± 0.011
AUGAAC | 0.618 ± 0.07 | 1.9 ± 0.025 | 1.73 ± 0.025 | 0.583 ± 0.02
AUGAAA | 0.631 ± 0.058 | 1.87 ± 0.021 | 1.7 ± 0.033 | 0.625 ± 0.011
UUAUUA | 0.289 ± 0.0048 | 1.96 ± 0.086 | 1.91 ± 0.062 | 0.398 ± 0.036
GUCCAA | 0.669 ± 0.0074 | 1.89 ± 0.065 | 1.79 ± 0.035 | 0.655 ± 0.08
GUCCAG | 0.3111 ± 0.00085 | 1.863 ± 0.015 | 1.48 ± 0.054 | 0.723 ± 0.0074
GUCCAC | -0.048 ± 0.034 | 1.94 ± 0.054 | 1.848 ± 0.0045 | 0.0349 ± 0.08
AUACUG | 0.294 ± 0.022 | 1.86 ± 0.077 | 1.43 ± 0.088 | 0.634 ± 0.025
AUACUA | 0.515 ± 0.014 | 1.9061 ± 0.00059 | 1.774 ± 0.001 | 0.512 ± 0.018

Variant | FACS-Seq fitted mean (log10) [1] | normalized RNA/DNA level with ligand (log10) [2] | normalized RNA/DNA level without ligand (log10) [3] | FACS-Seq fitted mean (log10) [4]
AUCGCC | 0.477 ± 0.12 | 1.95 ± 0.028 | 1.91 ± 0.034 | -0.391 ± 0.0099
UUCCUG | -0.284 ± 0.019 | 1.93 ± 0.041 | 1.756 ± 0.0019 | -0.379 ± 0.12
GUACAG | 0.688 ± 0.084 | 1.87 ± 0.071 | 1.45 ± 0.07 | 0.818 ± 0.08
AUAGUA | 0.52 ± 0.03 | 1.88 ± 0.034 | 1.751 ± 0.013 | 0.621 ± 0.066
AUAGUG | 0.213 ± 0.046 | 1.82 ± 0.041 | 1.362 ± 0.012 | 0.348 ± 0.12
GUAGCC | 0.609 ± 0.017 | 1.982 ± 0.014 | 1.83 ± 0.02 | 0.678 ± 0.059
GUAGCU | -0.279 ± 0.094 | 1.98 ± 0.03 | 1.88 ± 0.063 | -0.197 ± 0.0065
AUAGCG | -0.227 ± 0.035 | 1.87 ± 0.045 | 1.36 ± 0.057 | -0.0558 ± 0.023
AUAGCA | 0.241 ± 0.047 | 1.88 ± 0.033 | 1.78 ± 0.023 | 0.455 ± 0.093
UUGAAA | 0.426 ± 0.1 | 1.953 ± 0.0063 | 1.77 ± 0.044 | 0.614 ± 0.07
AUCAGG | 0.386 ± 0.072 | 1.87 ± 0.01 | 1.48 ± 0.061 | 0.617 ± 0.048
AUCAGA | -0.0827 ± 0.0075 | 1.9287 ± 0.00064 | 1.828 ± 0.0044 | 0.00695 ± 0.085
AUCAGU | 0.169 ± 0.016 | 1.885 ± 0.012 | 1.772 ± 0.0019 | 0.476 ± 0.069
AUCCUG | 0.0565 ± 0.03 | 1.944 ± 0.013 | 1.54 ± 0.086 | 0.437 ± 0.048
AUCCUC | -0.169 ± 0.0024 | 2.021 ± 0.0097 | 1.97 ± 0.04 | -0.394 ± 0.056
AUACAG | 0.1 ± 0.018 | 1.814 ± 0.017 | 1.45 ± 0.039 | 0.561 ± 0.031
AUACAC | 0.399 ± 0.093 | 1.915 ± 0.019 | 1.762 ± 0.0072 | 0.456 ± 0.1
CUCCAU | -0.247 ± 0.08 | 1.96 ± 0.023 | 1.8932 ± 0.0013 | 0.134 ± 0.038
UUCCAC | 0.451 ± 0.048 | 1.97 ± 0.077 | 1.88 ± 0.027 | 0.5314 ± 0.0026
UUCGGU | 0.323 ± 0.015 | 1.93 ± 0.044 | 1.78 ± 0.036 | 0.492 ± 0.007
AUAGGA | 0.382 ± 0.011 | 1.9 ± 0.042 | 1.658 ± 0.015 | 0.529 ± 0.017
AUAGGG | 0.023 ± 0.0025 | 1.807 ± 0.011 | 1.38 ± 0.0023 | 0.46 ± 0.053
GUACCA | 0.512 ± 0.037 | 1.944 ± 0.012 | 1.867 ± 0.006 | 0.532 ± 0.03
GUACCG | 0.26 ± 0.029 | 1.903 ± 0.0046 | 1.624 ± 0.0025 | 0.511 ± 0.015
